Experimental data taken from publication PMC11910319, “Inhibition of L-threonine dehydrogenase from Trypanosoma cruzi reduces glycine and acetate production and interferes with parasite growth and viability” (The Journal of Biological Chemistry, 2024).
Values belong to the molecule of their own block, whether it stands above or below them.

Key:
[1] = target: Trypanosoma cruzi L-threonine dehydrogenase (TcTDH), recombinant wild type (Trypanosoma cruzi (CL Brener Esmeraldo-like strain)); experiment: SEC; data not shown; quaternary structure in solution
[2] = target: T1, T. cruzi L-threonine dehydrogenase (TcTDH) (Trypanosoma cruzi, UniProt Q4CU39); experiment: recombinant enzyme, diaphorase/resazurin coupled fluorescence assay; Ki by direct NADH fluorescence (Ki-Thr […], Ki-NAD+[…]); format: biochemical
T1 construct: gene Tc00.1047053507923.10; recombinant TcTDH, codon-optimized gene in pET28a, His-tag purified
T1 sequence (Q4CU39 1-332): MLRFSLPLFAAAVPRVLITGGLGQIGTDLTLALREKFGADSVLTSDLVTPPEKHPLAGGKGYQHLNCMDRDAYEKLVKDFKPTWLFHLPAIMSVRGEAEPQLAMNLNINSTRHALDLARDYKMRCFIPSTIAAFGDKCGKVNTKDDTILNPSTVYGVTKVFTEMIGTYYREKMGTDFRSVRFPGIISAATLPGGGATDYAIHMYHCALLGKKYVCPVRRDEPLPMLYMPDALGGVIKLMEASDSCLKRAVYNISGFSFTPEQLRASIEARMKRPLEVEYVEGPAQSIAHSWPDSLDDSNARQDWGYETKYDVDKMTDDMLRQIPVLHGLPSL

purified protein = substrate: C[C@@H](O)[C@H](N)C(=O)O; experiment: purified protein; format: biochemical, Trypanosoma cruzi; conditions: NAD+; K+ ([…] KCl)

stoichiometry N [1]: 2
Molecule: Trypanosoma cruzi L-threonine dehydrogenase (TcTDH), recombinant wild type (enzyme)

IC50 [2]: 3.5 µM
Molecule: CCOc1ccc(NC(=O)/C=C/c2ccc(CC)o2)cc1 [TCMDC-143160]

B1: T. cruzi L-threonine dehydrogenase (TcTDH) (Trypanosoma cruzi strain CL Brener) (protein)
chain: T1 sequence (Q4CU39 1-332)
notes: recombinant TcTDH
Km (purified protein): 6.6 mM
